From paper PMC5343425

Target: Purified LDLR ectodomain (UniProt P01130)
Test: SPR; BIAcore 3000; LDLR ectodomain immobilised on a CM5 chip by amine coupling (target 1000 RU); lipoprotein fractions injected at 5 nM apoB in HBS-N pH 7.4 (0.01 M HEPES, 0.15 M NaCl) with 0.5% BSA and 1 mM calcium chloride; 25 °C, 30 μl/min for 3 min; fitted with the two-state binding model (A + B ↔ AB ↔ AB*)

Purified LDLR ectodomain, sequence (P01130 22-788): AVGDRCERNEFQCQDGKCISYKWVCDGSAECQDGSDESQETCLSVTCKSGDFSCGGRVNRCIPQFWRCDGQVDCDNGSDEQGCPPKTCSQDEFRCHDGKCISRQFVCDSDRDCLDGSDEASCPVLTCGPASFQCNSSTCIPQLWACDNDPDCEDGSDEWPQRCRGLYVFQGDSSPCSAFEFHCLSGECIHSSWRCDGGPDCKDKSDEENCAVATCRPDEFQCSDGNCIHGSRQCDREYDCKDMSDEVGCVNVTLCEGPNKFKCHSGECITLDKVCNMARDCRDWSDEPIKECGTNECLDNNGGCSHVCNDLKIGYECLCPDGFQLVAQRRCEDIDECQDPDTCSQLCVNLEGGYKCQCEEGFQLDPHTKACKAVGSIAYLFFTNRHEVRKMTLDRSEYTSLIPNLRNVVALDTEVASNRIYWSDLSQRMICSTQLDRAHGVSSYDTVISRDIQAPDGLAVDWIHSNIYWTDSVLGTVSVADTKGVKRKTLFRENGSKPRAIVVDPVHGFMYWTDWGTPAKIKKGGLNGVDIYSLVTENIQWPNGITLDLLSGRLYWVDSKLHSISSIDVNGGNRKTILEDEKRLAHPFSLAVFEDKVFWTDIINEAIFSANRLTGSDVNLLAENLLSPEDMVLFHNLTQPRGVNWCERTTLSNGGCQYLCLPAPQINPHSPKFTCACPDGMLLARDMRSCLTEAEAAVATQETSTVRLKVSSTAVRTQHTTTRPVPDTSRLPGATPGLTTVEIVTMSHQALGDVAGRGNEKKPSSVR

K1 (two-state, step 1)	K2 (two-state, step 2)	Ka	ka1 (two-state, step 1)	ka2 (two-state, step 2)	kd1 (two-state, step 1)	kd2 (two-state, step 2)	Substance
1.4e+08 M⁻¹	1.7	5e+08 M⁻¹	1.45e+06 M⁻¹ s⁻¹	0.006 s⁻¹	0.0127 s⁻¹	0.00287 s⁻¹	LDL (density 1.019-1.063 g/ml) isolated from fasting APOE3/E4 subjects (from UniProt P02649 19-317; P02649 19-317) (complex)
1.9e+08 M⁻¹	17.3	3.3e+09 M⁻¹	930000 M⁻¹ s⁻¹	0.017 s⁻¹	0.0052 s⁻¹	0.00097 s⁻¹	VLDL1-rich TRL fraction (Sf 60-400) isolated from fasting plasma of APOE3/E4 subjects (from UniProt P02649 19-317; P02649 19-317) (complex)
